One molecule from publication PMC7766583 (International Journal of Molecular Sciences, 2020) can be followed below.

The target in one assay is T1, amyloid beta 1-42 (human, UniProt P05067 672-713).
T1 construct: amyloid beta fragment 1-42 (42 amino acids), human, synthetic; numbers count on: the Aβ peptide; Used in an oligomeric form (Preparation A) and a monomeric form (Preparation B); The two forms are told apart by the assay; also called Aβ_(1–42); Aβ; source: synthetic peptide; bought: AnaSpec
T1 sequence (P05067 672-713): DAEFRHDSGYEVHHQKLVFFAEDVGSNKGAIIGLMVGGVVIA
The assay is described as follows: SPR; cypD captured on an amine-coupled anti-cypD antibody; oligomeric Aβ (Preparation A) injected at 1 μM for 5 min; running buffer 10 mM HEPES pH 7.4, 5 mM Na+, BSA 200 μg/mL, K+ 0-500 mM, Mg2+ 0-50 mM; 25 °C, 20 µL/min; reference-compensated response 5 min after return to buffer. Particulars: both partners purified.

In another assay the target is T2, amyloid beta 1-40 (human, UniProt P05067 672-711).
T2 construct: amyloid beta fragment 1-40 (40 amino acids), human, synthetic; numbers count on: the Aβ peptide; Used in a monomeric form (Preparation C) and an oligomeric form (Preparation A); The two forms are told apart by the assay; also called Aβ_(1–40); Aβ; source: synthetic peptide; bought: AnaSpec
T2 sequence (P05067 672-711): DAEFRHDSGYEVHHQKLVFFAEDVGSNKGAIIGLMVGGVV
The assay is described as follows: SPR; cypD captured on an amine-coupled anti-cypD antibody; monomeric Aβ (Preparation C for Aβ1-40, Preparation B for Aβ1-42) injected at 1 μM for 5 min; running buffer 10 mM HEPES pH 7.4, 5 mM Na+, BSA 200 μg/mL, K+ 0-500 mM, Mg2+ 0-50 mM; 25 °C, 20 µL/min; reference-compensated response 5 min after return to buffer. To be noted: both partners purified.

B1: cyclophilin D (enzyme)
chain: not shown
notes: cyclophilin D (cypD), human, recombinant, bought from Fitzgerald; also called cypD; source: bought: Fitzgerald (human, recombinant)
With B1, the binding result in the assay with amyloid beta 1-42 and with amyloid beta 1-40 was “binds” throughout.
